Experimental data from paper PMC11001197, “The PII protein interacts with the Amt ammonium transport and modulates nitrate/nitrite assimilation in mycobacteria” (Frontiers in Microbiology, 2024).

Target: T1, M. tuberculosis AccA3, His tag fusion (α-subunit of the acyl-CoA carboxylases) (M. tuberculosis, UniProt P96890 1-600)
T1 construct: also called His-AccA3; AccA3-His6
Assay: pull-down
Conditions: both partners purified

T1 sequence (P96890 whole entry, the tested form may be a part): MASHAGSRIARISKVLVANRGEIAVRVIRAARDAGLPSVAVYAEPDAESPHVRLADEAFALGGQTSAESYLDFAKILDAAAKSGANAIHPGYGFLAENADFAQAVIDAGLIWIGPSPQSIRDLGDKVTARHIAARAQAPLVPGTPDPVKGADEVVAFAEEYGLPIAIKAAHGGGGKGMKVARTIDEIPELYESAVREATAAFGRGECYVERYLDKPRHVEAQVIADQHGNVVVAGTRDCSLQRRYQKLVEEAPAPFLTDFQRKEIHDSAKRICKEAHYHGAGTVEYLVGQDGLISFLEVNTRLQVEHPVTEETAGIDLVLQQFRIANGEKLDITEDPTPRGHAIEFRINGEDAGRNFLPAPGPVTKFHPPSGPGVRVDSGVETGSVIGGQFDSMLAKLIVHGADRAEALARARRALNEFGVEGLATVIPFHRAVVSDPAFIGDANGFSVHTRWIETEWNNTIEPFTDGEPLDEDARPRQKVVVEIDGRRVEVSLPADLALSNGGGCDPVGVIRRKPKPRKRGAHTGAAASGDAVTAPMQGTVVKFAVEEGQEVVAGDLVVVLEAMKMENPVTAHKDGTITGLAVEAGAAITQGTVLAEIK

B1: Azospirillum brasilense GlnB (PII protein), without tags (natural protein, A. brasilense, UniProt P21193 1-112, looked up)
chain: MKKIEAIIKPFKLDEVKEALHEVGIKGITVTEAKGFGRQKGHTELYRGAEYVVDFLPKVKIEVVMEDSLVERAIEAIQQAAHTGRIGDGKIFVTPVEEVVRIRTGEKGGDAI
notes: also called Ab-GlnB; PII (Ab); source: E. coli (plasmid pLH25PET, pET28a), obtained without tags according to Gerhardt et al. (2015, 2017)
  binding result: binds
